Key:
[1] = target: S protein of authentic SARS-CoV-2 G614 virus (SARS-CoV-2, UniProt P0DTC2 14-1273); experiment: cell-based or functional assay
[2] = target: S protein of authentic SARS-CoV-2 G614 virus (SARS-CoV-2, UniProt P0DTC2 14-1273); experiment: cell-based or functional assay; remark: listed apart in the source

B1: DXP-604 dimeric IgA1 (antibody)
heavy: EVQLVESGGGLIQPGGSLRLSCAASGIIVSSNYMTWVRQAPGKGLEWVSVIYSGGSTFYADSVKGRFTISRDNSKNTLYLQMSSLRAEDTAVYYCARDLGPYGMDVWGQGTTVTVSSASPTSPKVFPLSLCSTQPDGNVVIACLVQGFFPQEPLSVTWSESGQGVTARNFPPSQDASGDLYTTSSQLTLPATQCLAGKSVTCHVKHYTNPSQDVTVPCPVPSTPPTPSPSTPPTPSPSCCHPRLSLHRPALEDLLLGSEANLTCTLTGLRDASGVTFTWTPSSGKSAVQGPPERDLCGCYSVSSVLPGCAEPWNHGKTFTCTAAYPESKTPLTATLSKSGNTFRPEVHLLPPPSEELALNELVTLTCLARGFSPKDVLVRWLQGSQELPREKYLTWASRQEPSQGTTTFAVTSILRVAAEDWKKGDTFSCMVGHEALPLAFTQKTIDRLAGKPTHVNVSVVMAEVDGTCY
light: DIQLTQSPSFLSASVGDRVTITCRASQGISSDLAWYQQKPGKAPNLLIYAASTLQSGVPSRFSGSGSGTEFTLTISSLQPEDFATYYCQQLNSDLYTFGQGTKLEIKRTVAAPSVFIFPPSDEQLKSGTASVVCLLNNFYPREAKVQWKVDNALQSGNSQESVTEQDSKDSTYSLSSTLTLSKADYEKHKVYACEVTHQGLSSPVTKSFNRGEC
chain: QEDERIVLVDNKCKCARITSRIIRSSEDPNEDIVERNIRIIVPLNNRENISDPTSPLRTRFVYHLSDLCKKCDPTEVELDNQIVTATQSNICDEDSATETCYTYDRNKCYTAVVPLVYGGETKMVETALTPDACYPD
Q: How did the “IC50, microneutralization assay with authentic virus” value (“IC50, microneutralization assay” below) [1] turn out when B1 was run?
A: The value was 0.11 nM.

B2: DXP-604 secretory IgA1 (antibody)
heavy: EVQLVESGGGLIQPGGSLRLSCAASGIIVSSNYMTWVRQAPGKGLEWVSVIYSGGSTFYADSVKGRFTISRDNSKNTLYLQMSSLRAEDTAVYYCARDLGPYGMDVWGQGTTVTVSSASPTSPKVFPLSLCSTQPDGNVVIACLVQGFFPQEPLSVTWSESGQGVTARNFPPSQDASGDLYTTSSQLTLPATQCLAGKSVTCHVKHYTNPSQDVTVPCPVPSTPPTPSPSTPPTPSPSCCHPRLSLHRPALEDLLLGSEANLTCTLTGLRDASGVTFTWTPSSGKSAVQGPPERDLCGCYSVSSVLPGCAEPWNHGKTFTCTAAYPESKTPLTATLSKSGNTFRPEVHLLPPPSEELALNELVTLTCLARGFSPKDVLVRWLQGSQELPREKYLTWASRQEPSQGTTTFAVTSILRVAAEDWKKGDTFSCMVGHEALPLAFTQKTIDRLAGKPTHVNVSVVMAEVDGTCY
light: DIQLTQSPSFLSASVGDRVTITCRASQGISSDLAWYQQKPGKAPNLLIYAASTLQSGVPSRFSGSGSGTEFTLTISSLQPEDFATYYCQQLNSDLYTFGQGTKLEIKRTVAAPSVFIFPPSDEQLKSGTASVVCLLNNFYPREAKVQWKVDNALQSGNSQESVTEQDSKDSTYSLSSTLTLSKADYEKHKVYACEVTHQGLSSPVTKSFNRGEC
chain 1: not shown
chain 2: not shown
Q: Which “IC50, microneutralization assay” value [1] does the source give for B2 here?
A: The value was 0.04 nM.

B3: XG014 IgG (antibody, V domains shown)
VH: EVQLVQSGAEVKKPGESLKISCKGSGYSFSNYWIGWVRHMPGKGLEWMGIIYPGDSDTRYSPSFQGQVTISVDTSISTAYLQWSSLKASDTAMYYCTRHQYGYNYGYFYYYIDVWGKGTTVTVSS
VL: QSVLTQPPSVSAAPGQKVTISCSGSSSNIGNNPVSWYRQVPGTAPKLLIYDNNKRPSGIPDRFSGSKSGASATLGITGLQTGDEADYYCGTWHTSLSSGVFGGGTKLTVL
Q: With B3 as the binder, how does the “IC50, microneutralization assay” value [2] read?
A: Its value is 0.24 nM.

From US20240209065A1 (SINGLOMICS BEIJING DANXU BIOPHARMACEUTICALS, published 2024)
